± gives the uncertainty stated by the source.
Assay: self-splicing fitness, log relative to wild type (ln ratio); higher = more splicing; Tetrahymena group I intron in knt gene, E. coli kanamycin selection, DiMSum; sequences stand for … in CUCUCU…GGAGGGAAAAGUUAUCAGGCAUGCACCUGGUAGCUAGUCUUUAAACCAAUAGAUUGCAUCGGUUUAAAAGGCAAGACCGUCAAAUUGCGGGAAAGGGGUCAACAGCCGUUCAGUACCAAGUCUCAGGGGAAACUUUGAGAUGGCCUUGCAAAGGGUAUGGUAAUAAGCUGACGGACAUGGUCCUAACCACGCAGCCAAGUCCUAAGUCAACAGAUCUUCUGUUGAUAUGGAUGCAGUUCACAGACUAAAUGUCGGUCGGGGAAGAUGUAUUCUUCUCAUAAGAUAUAGUCGGACCUCUCCUUAAUGGGAGCUAGCGGAUGAAGUGAUGCAACACUGGAGCCGCUGGGAACUAAUUUGUAUGCGAAAGUAUAUUGAUUAGUUUUGGAGUACUCGUGGUCG
Method in brief: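 Library with all eight P1ex-region intron nucleotides randomised, intron inside the knt kanamycin-resistance gene on pET-22b(+), in E. coli BL21(DE3). Cells grew overnight at 37°C or 30°C on LB agar with or without 25 μg/mL kanamycin (plus 100 μg/mL carbenicillin, 50 μM IPTG, 0.2% rhamnose), in six replicate transformations. Pooled colonies were amplicon-sequenced on Illumina HiSeq 2500. DiMSum fitness is the error-weighted combination of wild-type-normalised replicate fold changes, kanamycin versus none.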

Sequence	self-splicing fitness (ln) (30 °C)	self-splicing fitness (ln) (37 °C)
UAACAGCAAUAUUACGAGGC	-3.62 ± 0.2	-1.97 ± 0.18
CACCAGCAAUAUUACGCCUC	-3.14 ± 0.23	-1.9 ± 0.2
AUAGAGCAAUAUUACGAGAA	–	-1.82 ± 0.32
CCUUAGCAAUAUUACGACCC	-2.95 ± 0.44	–
CUAUAGCAAUAUUACGCGUC	-3.97 ± 0.34	-2.71 ± 0.25
GGCCAGCAAUAUUACGCUUU	-0.464 ± 0.064	0.4 ± 0.087
UCUUAGCAAUAUUACGGUCA	-1.71 ± 0.16	-0.613 ± 0.16
GAAAAGCAAUAUUACGUCUG	-0.835 ± 0.068	-0.219 ± 0.084
GUUGAGCAAUAUUACGAAAC	-1.97 ± 0.37	–
CGUUAGCAAUAUUACGUACU	-0.583 ± 0.078	0.0264 ± 0.097
GAUUAGCAAUAUUACGGCUG	-0.996 ± 0.067	-0.513 ± 0.093
CUGGAGCAAUAUUACGUCGA	-3.15 ± 0.29	-2.82 ± 0.34
AUACAGCAAUAUUACGUGGA	-3.06 ± 0.12	-2.47 ± 0.12
CCCGAGCAAUAUUACGGAGU	-3.46 ± 0.25	-2.87 ± 0.22
UAGAAGCAAUAUUACGGUAA	-1.64 ± 0.091	-0.669 ± 0.073
UGCGAGCAAUAUUACGGCGC	-2.34 ± 0.46	–
ACGAAGCAAUAUUACGGACU	0.0455 ± 0.045	0.53 ± 0.065
GGCCAGCAAUAUUACGCCUC	-0.497 ± 0.13	-0.06 ± 0.15
GAGUAGCAAUAUUACGUCCA	-1.32 ± 0.14	-0.346 ± 0.16
AGCCAGCAAUAUUACGCCAG	-3.96 ± 0.27	-2.23 ± 0.16
GGCUAGCAAUAUUACGUUAC	-1.55 ± 0.069	-0.888 ± 0.093
GCUUAGCAAUAUUACGCACG	-2.19 ± 0.092	-0.388 ± 0.1
AUACAGCAAUAUUACGUCUG	-2.93 ± 0.083	-1.4 ± 0.08
UUUAAGCAAUAUUACGGCCA	-0.688 ± 0.11	-0.335 ± 0.15
UCUAAGCAAUAUUACGCGAU	-4.31 ± 0.33	-3.83 ± 0.36

Sequence	self-splicing fitness (ln) (30 °C)	self-splicing fitness (ln) (37 °C)
ACCUAGCAAUAUUACGACGG	-1.3 ± 0.089	-0.541 ± 0.14
CGGAAGCAAUAUUACGGUCU	-1.38 ± 0.074	-0.791 ± 0.099
AGGAAGCAAUAUUACGCCGA	-1.95 ± 0.17	-0.0948 ± 0.12
AGAGAGCAAUAUUACGGGUA	-4.04 ± 0.42	-1.47 ± 0.19
AAAAAGCAAUAUUACGGCGA	-0.0921 ± 0.08	0.25 ± 0.12
CGCGAGCAAUAUUACGACGU	-2.39 ± 0.33	-1.08 ± 0.21
UCCCAGCAAUAUUACGCACU	-1.64 ± 0.12	-1.04 ± 0.14
ACAGAGCAAUAUUACGCAGG	-4.02 ± 0.18	-2.59 ± 0.17
UCACAGCAAUAUUACGCGGC	-3.63 ± 0.23	-2.5 ± 0.28
GGGCAGCAAUAUUACGAGGA	–	-2.97 ± 0.47
GACAAGCAAUAUUACGGAAU	-1.92 ± 0.11	-1.35 ± 0.12
GUAUAGCAAUAUUACGCAAU	-1.98 ± 0.22	-2.85 ± 0.4
UGCUAGCAAUAUUACGCAUU	-3.79 ± 0.39	-1.85 ± 0.34
ACAGAGCAAUAUUACGACCU	-2.8 ± 0.19	-0.728 ± 0.16
ACCUAGCAAUAUUACGGACU	-0.424 ± 0.059	0.508 ± 0.069
UGCAAGCAAUAUUACGCCGA	-1.38 ± 0.15	-0.485 ± 0.14
GGCGAGCAAUAUUACGGCCG	-2.11 ± 0.16	-0.882 ± 0.2
ACUUAGCAAUAUUACGACGA	-0.777 ± 0.089	-0.322 ± 0.088
CCUUAGCAAUAUUACGCACU	-2.46 ± 0.41	-1.29 ± 0.22
AUUAAGCAAUAUUACGGAAC	-3.44 ± 0.2	-0.822 ± 0.13
GUAAAGCAAUAUUACGAAAC	-1.83 ± 0.13	-0.6 ± 0.13
CUAGAGCAAUAUUACGUAAG	-0.628 ± 0.06	0.154 ± 0.089
UGAUAGCAAUAUUACGGUAU	-3.75 ± 0.22	-1.92 ± 0.18
AUCAAGCAAUAUUACGAUCA	-1.14 ± 0.1	-0.582 ± 0.11
AGGAAGCAAUAUUACGAAUC	-2.86 ± 0.25	–

Sequence	self-splicing fitness (ln) (30 °C)	self-splicing fitness (ln) (37 °C)
UUGGAGCAAUAUUACGCCUG	-2.22 ± 0.2	-1.2 ± 0.23
UGGUAGCAAUAUUACGGGGA	-2.58 ± 0.26	-2.18 ± 0.18
AUCGAGCAAUAUUACGGUUA	-3.3 ± 0.23	-1.04 ± 0.13
GAAGAGCAAUAUUACGCAGU	-2.47 ± 0.2	-2.38 ± 0.23
CUAAAGCAAUAUUACGUAAC	-2.86 ± 0.12	-1.62 ± 0.12
AGACAGCAAUAUUACGGUGU	-3.34 ± 0.12	-2.59 ± 0.12
CGUUAGCAAUAUUACGUAGA	-2.87 ± 0.18	-1.9 ± 0.22
AGUGAGCAAUAUUACGCGGC	-3.16 ± 0.44	–
UGCGAGCAAUAUUACGUGGU	-3.4 ± 0.18	-2.63 ± 0.21
AUCCAGCAAUAUUACGACAA	-0.977 ± 0.095	-0.337 ± 0.096
GACUAGCAAUAUUACGAGGU	-2.34 ± 0.2	-1.64 ± 0.2
GCCCAGCAAUAUUACGAGCG	-0.449 ± 0.067	-1.17 ± 0.1
UUACAGCAAUAUUACGUAUC	-3.33 ± 0.19	-3.28 ± 0.24
UGCGAGCAAUAUUACGGUCU	-2.12 ± 0.15	-1.45 ± 0.25
GCCAAGCAAUAUUACGUCUA	-1.15 ± 0.11	-1.08 ± 0.1
GCUUAGCAAUAUUACGAAGC	-4.18 ± 0.31	-4.66 ± 0.36
CAAAAGCAAUAUUACGUUGC	-3.74 ± 0.18	-3.17 ± 0.23
GCAGAGCAAUAUUACGCGUG	-2.7 ± 0.24	-3.6 ± 0.37
AUCUAGCAAUAUUACGACCG	-0.961 ± 0.39	-0.253 ± 0.33
CAACAGCAAUAUUACGUGUA	-2.41 ± 0.076	-1.76 ± 0.075
GUACAGCAAUAUUACGCAAA	-0.875 ± 0.14	-2.48 ± 0.28
GUGCAGCAAUAUUACGCGAG	-2.55 ± 0.13	-1.7 ± 0.12
GCAUAGCAAUAUUACGCAAA	-1.88 ± 0.39	-0.928 ± 0.24
GCGCAGCAAUAUUACGCUGG	-2.1 ± 0.1	-2.13 ± 0.16
CAAAAGCAAUAUUACGGAGC	-2.95 ± 0.18	-2.84 ± 0.25

Sequence	self-splicing fitness (ln) (30 °C)	self-splicing fitness (ln) (37 °C)
CGACAGCAAUAUUACGUGAU	-3.44 ± 0.21	-1.92 ± 0.17
CAAUAGCAAUAUUACGUGGC	-3.53 ± 0.16	-2.72 ± 0.2
CUCUAGCAAUAUUACGAGAA	-3.05 ± 0.41	-2.02 ± 0.21
CUUAAGCAAUAUUACGCCCA	-2.46 ± 0.32	-1.69 ± 0.48
GUACAGCAAUAUUACGUUCC	-3.44 ± 0.15	-3.48 ± 0.42
GCGAAGCAAUAUUACGAUGA	-1.1 ± 0.11	0.105 ± 0.098
UGAUAGCAAUAUUACGACGC	–	-3.55 ± 0.29
CACUAGCAAUAUUACGCACC	-2.29 ± 0.18	-0.458 ± 0.19
GCUCAGCAAUAUUACGCAAC	-1.28 ± 0.16	-1.07 ± 0.2
UGUGAGCAAUAUUACGACCA	-1.27 ± 0.17	-0.0518 ± 0.21
UACGAGCAAUAUUACGCAUU	-3.48 ± 0.43	-2.09 ± 0.46
GUCCAGCAAUAUUACGGAUG	-0.272 ± 0.077	0.023 ± 0.1
UCCCAGCAAUAUUACGAACA	-1.51 ± 0.13	-0.139 ± 0.12
CUGAAGCAAUAUUACGGGUU	-3.71 ± 0.21	-2.77 ± 0.22
CUUGAGCAAUAUUACGCAGG	-3.46 ± 0.25	-3.55 ± 0.35
UUCGAGCAAUAUUACGAUAA	-1.53 ± 0.097	-0.787 ± 0.11
CGCAAGCAAUAUUACGGUCG	-2.32 ± 0.11	-0.33 ± 0.1
CCACAGCAAUAUUACGUUCG	-1.21 ± 0.048	-0.208 ± 0.069
UUGUAGCAAUAUUACGUGAG	-0.904 ± 0.076	-0.739 ± 0.11
GUGGAGCAAUAUUACGACAA	-1.83 ± 0.24	-1.38 ± 0.25
AUACAGCAAUAUUACGUCGG	-2.35 ± 0.13	-2.13 ± 0.17
AUCCAGCAAUAUUACGUGUU	-2.74 ± 0.094	-2.45 ± 0.12

Reference: the supplement of paper PMC7877785
